One data set has as its target PrPRes, native state (UniProt P04156).
For data set [1], the target named is DS-PrPRes (Gdn-HCl treated PrPRes) (UniProt P04156).

Where two headings read alike, the source gives them in different places.

CTTACGGTGGGGCAATT [Apt1]: the binding signal (fluorescence ratio) came to 1.69 with PrPRes, native state (5'-NH2) and 4.74 in data set [1] (5'-NH2).

As for “GTTTTGTTACAGTTCGTTTCTTTTCCCTGTCTTGTTTTGTTGTCT [Apt2]”, the binding signal (fluorescence ratio) with PrPRes, native state (5'-biotin) came to 1.69; in data set [1] (5'-biotin), 4.74.

Values taken from paper PMC3564804.
